# From patent publication US20230192796A1 (published 2023)
# T1: Human IL-10Rβ on cells (Daudi, Jurkat, YT-1, THP-1 cell lines; primary human PBMC populations) (human, UniProt Q08334 20-325)
# T1 sequence (looked up): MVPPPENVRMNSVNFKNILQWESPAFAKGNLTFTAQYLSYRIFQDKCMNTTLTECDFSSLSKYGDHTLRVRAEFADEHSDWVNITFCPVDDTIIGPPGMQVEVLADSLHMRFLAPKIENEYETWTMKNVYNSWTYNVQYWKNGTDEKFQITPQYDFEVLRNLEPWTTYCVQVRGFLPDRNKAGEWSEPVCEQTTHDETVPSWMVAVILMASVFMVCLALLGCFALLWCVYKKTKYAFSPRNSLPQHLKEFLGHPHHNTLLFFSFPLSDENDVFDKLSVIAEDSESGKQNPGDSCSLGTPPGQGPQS
# Target: T1, Human IL-10Rβ on cells (Daudi, Jurkat, …)
# Assay: cell-based or functional assay
binder,measurement,value
"Affinity matured IL-10 clone 5.1 (Super-10), soluble (ligand) SPGQGTQSENSCTHFPGYLPNMLRDLRDAFSRVKTFFQMKDQLDNLLLKESLLEDFKGYLGCQALSEMIQFYLEEVMPQAENQDPDIKAHVQSLGENLKDLRLWLRRCHRFLPCENKSKAVEQVKNAFNKLQEKGIYKAMSEFDIFINYIEAYMTMKIRNHHHHHH",ratio of super-10 to 10-DE STAT3 Emax in Daudi cells,> 20 ratio (super-10:10-DE)
same,ratio of super-10 to 10-DE STAT3 Emax in THP-1 cells,~1 ratio (super-10:10-DE)
